{"source": "a protein production outcome set (Wang et al. 2014)", "experiment": "label from the status in PepcDB records"}
{"sequence": "MDINKLKLTPDSSIKEALKIVGQERVRLGIIVDKKDKFLGVISDSNIRKALISGKTLKDSIKDIYTKNPITIKENTSKEQLLKISAKTDIYDFPVLDEKGQILSIKSISSLLKANPNSIIIMAGGLGSRLKELTKDTPKPMLKVGKKPILESIIQRLKNQNFENFIFCVNYKKQIIEDYFQKGQKFGVKISYIKERKKLGTAGALSLIKQEFKESFIVMNADILTELDFNALLKAHKKSKALMSVCVREFEQQIPYGVITQKQGFIENIEEKPTQKFLVSAGIYVLENEILNLIAKNEYLDMPELIKLVLQKGKVNTYIINDYWIDIGRPDEFLKANEDFKLEHHHHHH", "values": [{"measurement": "protein production", "result": "not failed"}]}
{"sequence": "MDPKHKKLLRTQRLFLSEELLVDDLIIQYLYQEEILTESHLEEIQSESSSRNKTLKLLDILPSRGATAFHHFIKSLEKDFPWIRDKLLQLNEEEESPPPPFTVQCGVPDHILLTVPTTLHLNQLASRLGSEWKSVLLDLGLSCADLYRCCSDHPLAVQSQVLAGLVMWTQRNGRGATVQRLIQSLQAADVPPSVLQQVFK", "values": [{"measurement": "protein production", "result": "failed"}]}
{"sequence": "TEKTKAVETTDVALAIDTLVQNGLKALDEMRQLNQEQVDYIVAKASVAALDAHGELALHAVEETGRGVFEDKATKNLFACEHVVNNMRHTKTVGVIEEDDVTGLTLIAEPVGVVCGITPTTNPTSTAIFKSLISLKTRNPIIFAFHPSAQESSAHAARIVRDAAIAAGAPENCVQWIEQPSIDATNALMNHDGIATILATGGNAMVKAAYSCGKPALGVGAGNVPAYVEKSANIRQAAHDIVMSKSFDNGMVCASE", "values": [{"measurement": "protein production", "result": "not failed"}]}
{"sequence": "SETQSFVVSVAGSDRVGIVHDFSWALKNISANVESSRMACLGGDFAMIVLVSLNAKDGKLIQSALESALPGFQISTRRASSVAERHVSPDTREYELYVEGPDSEGIVEAVTAVLAKKGANIVELETETLPAPFAGFTLFRMGSRVAFPFPLYQEVVTALSRVEEEFGVDIDLEEVVEGEDSEEDDDSPNSPVGRH", "values": [{"measurement": "protein production", "result": "not failed"}]}
{"sequence": "LEYQKSQPPQPGDKFVSVVSQFITVASFSFSDVEDLLAEAKDLFTKAVKHFGEEAGKIQPDEFFGI", "values": [{"measurement": "protein production", "result": "failed"}]}
{"sequence": "MKRILVSLYEKEKYLDILRELHEKGWEIWASSGTAKFLKSNGIEANDVSTITGFENLLGGLVKTLHPEIFAGILGPEPRWDVVFVDLYPPPDIDIGGVALLRAAAKNWKKVKPAFDMETLKLAIEIDDEETRKYLAGMTFAFTSVYDSIRANQFVEGISLAFKREDLQLRYGENPHEKAFVYGKPAFEILHEGKTISFNNILDAENAWFMAKNLPRMGAVVVKHQSPCGAAIGEDKVEIVKKAIEADDESSFGGILAVNFEMDEEVAKSLKKYLEVIVAPSFTQEAIEVLSKKKVRLLKPGDYASWAGKMAFGSLVLSERKYPEGNFELVVGEPLSEKELEDLEFAYRVVEGAKSNAVLIAKDGVTVGIGSGQPSRKRAAWIATVMAGEKAKGAVAASDAFFPFPDSLEILAQAGVKAVVAPLGSIRDEEVIEKARELGITFYKAPSRVFRH", "values": [{"measurement": "protein production", "result": "not failed"}]}
{"sequence": "SLSQTTNIKEQTDTGLAPPAPAITTNSAAIEEQANSSIRKLYHTLNTMPNTSMADRISQISAYFKGTKYILGSLGEGPNARYDQFPRYRVDGFDCDTYVNTVLSLALANSLESFQECLKHTRYKNGKRSYINRNHFTSIDWNNYNQKRGLLKDITFSIRNEKKQPVALYANALINKPQWYNHKTIDTIRLQKQDKNEQEKRLVELKAKGKTLETSLSNVPYIPFTALFSENKPNLHLFSQIPNGAVIEIIRPNWDLRQQIGTELDISHLGFAIWINNELFFRQASSQYGKVVDVSLIDYLDKARSSPTIKGINIQVVLPEKPVSNGCQLFDIR", "values": [{"measurement": "protein production", "result": "not failed"}]}
{"sequence": "KLRQWLIDQIDSGKYPGLVWENEEKSIFRIPWKHAGKQDYNREEDAALFKAWALFKGKFREGIDKPDPPTWKTRLRCALNKSNDFEELVERSQLDISDPYKVYRIVPE", "values": [{"measurement": "protein production", "result": "not failed"}]}
{"sequence": "MSQSNSNHSPQEQWQQAVLTYARDINRYVETGNRDGWKGLKEPHLPDTEHLLPDWQAALEASNQEPYDAARRQAFRQEWPPAHFPLSPRLESQGRMIPTLALLPDGSLLARIGAPYEAGEVVHIDDARIQPLEQVEGFGMCPQRRYFAWARADGIQLTDGWNGPEVASFAWPDPHANLPAGVALEDTGRPRPSSLIPFPDGRRVLLVSSDGIFVLQAEGATRLLPSLEDLQQELADGVAPEDLGIGLSMEHGAVSPDGQWIAVGEQSSSHLVFDARLQRVAQIGPASEYPHFAHFNQRGDRLLLNACHFYGGASVGVAVADLPGLSTDFYSDDARTPVLQEGARVYAAASRGDEFIIGDAYGYLRAFSENGEERWQHYIGSTLTAMDISPDGKTLVAATYAGIIVKLDLDAGRPDWQIGTGEHLEVQRWLFWKDFAKPLLW", "values": [{"measurement": "protein production", "result": "failed"}]}
{"sequence": "MENQTPSQALISKGWKYFIIVGVIVALAGLGATSLPVMAGVTISTIIGTLLLITGLVQVYHTFRIHSWKEKLWYVLSALFYIVGALFILFKPLEGLMTITTIMIVIMIFNGLTRMIFGFTNRSLPGCGMVILSGLLSVVIGGYFFSLFDNPEFSLSLLGTFVGVSLIFEGMSFLFIGLRLRNASKA", "values": [{"measurement": "protein production", "result": "failed"}]}
{"sequence": "MTAGGPLITAALTAYDAEDTIAGALASALAQDWPSLEVLILDDASRDGTRKVIEAVITERGDQGPPIRLIALDKNGGVAQARNRLLAEAKGEVIAFFDDDDISAPDRLRRQYARLIAAERETGAGLVFCHAARCQILPDGGERLEGTMGEEGGPIPGGDAVVRRILLGTLSPGVRGSCATCSQMARTASYRALGGFDPTLRRAEDTDLCLRAALGGAVFAGLSAPLVTQRLTLGGDKTPREDHRAYQALLNKHRATLAKTGWLTFYARWQDIRLAHLEGRTGRVVLGLVGLGLSHPLKLARKIVWSLPAAGTRAAYHRQHRKDTS", "values": [{"measurement": "protein production", "result": "failed"}]}
{"sequence": "MPYAIDFGTTNTVIARWNEATRQGNLIDLPSLSHPLGDSGPLVPSLLYVENAALGQVAIAREVLDRGRDISTDTRFFKNFKRGIGVAVQGFLPQLDGHTLSLETLGQWYLDKLIRILTEQEGQGPDCLALTVPVDSFESYRHWLSHTCRSWGVEEVRLVDEPTAAALGYGVGDASQILVLDFGGGTVDFSWVQLGDRGQKGRSGFLLKWGGILGGSKAEEKSALAKVLAKAGANLGGSDIDYWISEYFTEAQGLQVSPWIRRLAERLKIALGEAEEATEVYFDDQALESYEFQLRRSDLTEILQQRQFFERLTALWEQVQQTAQRRGLTPANLDAVLVVGGTSQLPMVQDWINAQFPAGKIRNQQPFGAIALGALQIYQGREVQDYLYHSYGVRYWNRRKNSHNWHPIIKNGQTYPMAEPIELTLGASLDNQPSIELIVGELGSSIGATEVYFDGNQLITRVLENQAFTVQPLNDRNGARQIAQLSPPGVPGGDRIKVKFWVDDQRYLRLTVEDLLQQKLLLENQVVAQLRLEHHHHHH", "values": [{"measurement": "protein production", "result": "failed"}]}
{"sequence": "QRSYERDFPHHDRICIVKTHGTRQSQEGDKPEELDFSQVSGGVAPAIQEEIPGVELATRTTLYGTSKMILEDNKTYETKTLLAEPAFLDMFGVELIAGVRDSALRDNMTCLISESLARKMGGDVLGKRLRPAESKSDRAITIGGVFEDLPHNSSIQADMLLPITWMPAESLNNWIGNDRYIAYVRLRPGVSPESLDEALLEMQKRHQDMEVFRKAGVELHYSLTPFNRLRLEDPTLVNMLRIQQ", "values": [{"measurement": "protein production", "result": "not failed"}]}
{"sequence": "MADTITVSIVLAYFVVTLALGFFAARKIKTAEHYYGARKLFGMFVTAVAVFSGIASAFTFIGGPGLVYPMGGTVNWVIWTPVISMPLIWYLLGKRIKLITEARPVATLPDLTAARFKSDAVRFLTAVALIFGIITYLAGNVMGAGLVLTDMLGTPLELSIAIVFGIIMLYTAFGGMVASILTDFFQGLVMMVAAIIFVVFILIMTGGVENLFATIAESNPRHIDPIGVGPIWLGIMGWWWALNIGSSVQPHAVTKFFALKDYRDLKWGALVTTIAWTLACLMWFFGGYASVWVVIKGLAEAPARSDQAIFGVIAQMPVVLKAVIYAGVLAAIMSTVSGFISMGTAAVVRDIPTAIGKSLSQRGQILWGRVVTVILTVVAALFGYYGGYVVGILVTLGLGYFASMLFPLLVIGLNWKRATKEAAIITTALTVAMNLGFLVYEKVLSMSLPYGLPGYGVTFAVGIITMVLVSLITKGAALDDMDEDIRAAMSL", "values": [{"measurement": "protein production", "result": "failed"}]}
{"sequence": "MTENPEEDNKVFNYWWLAHLVEVRLDAYLRTKKQADLEVAEKTYLHNKNRNGGTLIHDFYDDMLWNALAAYRLYKATGKSIYLEDAQLVWQDLVDTGWNDIMGGGFAWRRPQMYYKNTPVNAPFIILSCWLYNELNETKYLEWAMKTYEWQTKVLVREDGFVEDGINRLEDGTIDYEWKFTYNQGVYIGANLELYRITKEAKYLDTANKTAAISLKELTEDGIFKDEGNGGDEGLFKGIFYRYFTDLIEETANKTYRDFVLNSCQILVENAKLDGYLLMGMNWKEKPSGKIPYSAELSGMIALEMAAKLELEHHHHHH", "values": [{"measurement": "protein production", "result": "not failed"}]}
{"sequence": "AIAAQTERRDAPELPDFSLLKRLARDQLIFLLEQLPGKKDLFIDADLMSPLDRIANVTILKQHEVDKLYKVELKPIVSSSDQLCFLIRPRIQTVKWISDLVNSDKVAGRFRRYKIIFTPQKFYACETVLEEQGVYGDVTTDEWNFYILPLDDDILSLELPEFFRDNFLEGDQRWVTTGGGALHLLQSVYGSFSKVYGIGRCAKMVYESWRELMEEGEQRTRQPEFAKVFLIDRDVDFVTPLCSQVVYEGLVDDIFRIKCSSVEFGPDVTSSDKSIKVMLNSQDKVFNEIRNEHFSNVFGFLSQKAKNLQTAYDKRRGMDIQQMKAFVADELKGLKQEHRLLSLHIGASESIMKKKTKQDFQELLKTEHSLLEGFEIRECIAYIEEHINRQVSMIDSLRLLCLLSITENGLLSKDYRSLKAQYLQSYGIEHLLTFANLRQLGLLEEQQTGETLTVMESKVGKLVNDKTAGKLTDAFSSLAKKSNFRALSKRLALVPKSGEEYDLRVPRDMAYIFSGAYIPLSCKLIEQVLERDGWTGLEEVTRMLNGQDFAVTGGSSSSEARNKSNGQRIILVMFLGGCTYSEISALRFLGKERGCRFIVLTTAITNSGRLLEALLDKHV", "values": [{"measurement": "protein production", "result": "failed"}]}
{"sequence": "MRLPFAITRFAAGAALAALGTSAFANCVANPPTQSNASFPASLAGKLAYHSYVSYGDGTSQLFIYDFAARTLTQVSKSAWGIQDPMNAVFSPDGKWLAFMGITNNAWNVFLWQVGSSSQPVNMTNSTGQTRNEDPKFSADGKSLFFKQSGDVMQATLSYTSTGPIFTSVVDITNTAPATENSMPFATPDGSAVYFATGTGAGMGLYKETIATHATFAFDTPAGLQTYYPIVRADGTVFYARWKDAASQADQIYTKVNPGDTPNQLSINDCNSNNSDPAPVNGTNYVFFSSTTAGGYQLYLGDVSTGQRWSLSQFGVNSDTTKAKLGSNYYAGGTTASTSGQTTRLLSQGMPASASSSYNSSLGAANAFDGDTANTRWDSIEGSAAGTQWLMVDLGTVRTINGVDLYWDAGAKTYAIQTSSDGVNWTSIYSTSNGIAYGHAVLSNLRGSGRYVRMYGTQRATQWGYSIDEMQVWGY", "values": [{"measurement": "protein production", "result": "failed"}]}
{"sequence": "MLAALEVAVPALYAVAIVVLTAYGGNLLWLALVHAASERLRDGPVPDPDDLPVPDDDWPVVTVQLPLYNEAEVAHRLIDACVQLDYPRSRLDIQVLDDSTDATTERVARRVAHWQAEGVNITHVRRDDRTGYKAGALANGLQRARGDLIAIFDADFVPRPSFLRRLVPRFFDAPDLGMVQARWGHLNRDDSLLTKVQAFGLDAHFAIEQRVRELAGCFLNFNGTAGVWRRACIEDAGGWAHDTLTEDLDLSYRAQLQGWRLTYVPAAEAPAELPPDMNALRAQQFRWAKGGAETALKLTGRLWRSAQPWRVKLEGTFHLTAHFAFPFILLAALTHAPLLLLKGIGHGPGEVYFAVMGFGLFGFAGFFLAQLFAQRALHPDWRRRLRLFVPFMAGTMGLSLSNTSAVWQALRGTDTAFIRTPKVGSAGGDGWWESRYAIREVPRIVWGELALAVYSTVGLGVVIGLGEWAAVPFQALFALGFALVTASSLRQALTAQQGPTASAPASSPAA", "values": [{"measurement": "protein production", "result": "failed"}]}
